Data reported in publication PMC7893823.

Assays:
[1] = target: nucleosome core particle (NCP) with human histones H2A, H2B, H3.1 and H4 and the 145-base pair Widom 601 DNA, P04908;P06899;P68431;P62805; assay: gel shift assay; details: NCP 0.52 µM, dsDNA 50-mer competitor DNA included, read off a plot
[2] = target: human SET8 (KMT5A Isoform 2), Q9NQR1-2; assay: gel shift assay; details: NCPapd 0.52 µM, dsDNA 50-mer competitor DNA included, read off a plot
human SET8 (KMT5A Isoform 2), Q9NQR1-2, sequence (Q9NQR1 whole entry, looked up, canonical isoform): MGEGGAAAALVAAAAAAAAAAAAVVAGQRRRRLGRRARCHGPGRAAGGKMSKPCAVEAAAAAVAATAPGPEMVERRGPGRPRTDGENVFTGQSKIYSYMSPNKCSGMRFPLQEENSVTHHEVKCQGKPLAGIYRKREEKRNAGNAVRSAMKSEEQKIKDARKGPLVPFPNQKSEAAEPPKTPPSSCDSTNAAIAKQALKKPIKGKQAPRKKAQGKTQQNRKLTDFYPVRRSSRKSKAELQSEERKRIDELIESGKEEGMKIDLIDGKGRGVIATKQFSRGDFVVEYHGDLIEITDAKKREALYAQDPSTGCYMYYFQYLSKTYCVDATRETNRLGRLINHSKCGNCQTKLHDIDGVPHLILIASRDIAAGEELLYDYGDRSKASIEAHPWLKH

| response ([1]; SET8 R188A/R192A 1.0 µM, parent: est. 61) [%] | response ([1]; SET8 R188A/R192A 2.1 µM, parent: est. 91) [%] | response ([2]; SET8 1.0 µM, parent: est. 61) [%] | response ([2]; SET8 2.1 µM, parent: est. 91) [%] | Substance |
| --- | --- | --- | --- | --- |
| 23 | 54 | – | – | human SET8 (KMT5A Isoform 2) (from UniProt Q9NQR1-2) R188A; R192A |
| – | – | 4.5 | 13 | nucleosome core particle (NCP) with human histones H2A, H2B, H3.1 and H4 and the 145-base pair Widom 601 DNA (from UniProt P04908;P06899;P68431;P62805) H2A:E56T; H2A:E61T; H2A:E64T; H2A:D90S; H2A:E91T; H2A:E92T; H2B:E105T; H2B:E113T |
